Paper PMC314469, “Protein Interaction Networks by Proteome Peptide Scanning” (PLoS Biology, 2004)

T1: amphyphisin SH3 (AMPH_HUMAN), P49418
T1 chain: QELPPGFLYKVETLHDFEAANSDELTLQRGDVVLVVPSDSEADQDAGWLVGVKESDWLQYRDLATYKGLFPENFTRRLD


Legend:
[1] = target: T1, amphyphisin SH3 (AMPH_HUMAN), P49418; assay: SPOT array
[2] = target: endophilin SH3 (SH3G2_HUMAN), Q99962; assay: SPOT array

Row | Binder | normalised SPOT signal, Boehringer light units (BLU); mean over the file's lines of this peptide [1] | normalised SPOT signal, Boehringer light units (BLU); mean over the file's lines of this peptide [2]
1 | PGNIPQRPDRLPMS [Q9P2I2 89-102] | 2130 | 360
2 | PGTSPRRPSVVPSR [Q96D64 48-61] | 35.3 | 587
3 | PERLLLRPARIRAD [Q9BXY2 295-308] | 1020 | 106
4 | PFGQLKRPRRNGLG [Q9NUE2 170-183] | 510 | 67.8
5 | PGVPPARPPPLTKV [Q9HCH0 869-883] | 807 | 10000
6 | PEVGPWRPKRLSGV [Q9NPU4 88-101] | 4730 | 2400
7 | PGRRPGRPPKFIRL [Q9NQV6 314-328] | 504 | 15700
8 | PGPVPPRPPAAEPP [Q9H3S7 1093-1107] | 50.3 | 331
9 | PGDSPAKPPEGSAG [Q8WXD9 428-442] | 52.2 | 72.5
10 | PGLAPKRPLETGPR [Q96BF6 185-198] | 31.4 | 1350
11 | PGPPPGRPPGPPPG [Q9Y2W2 459-473] | 33.4 | 924
12 | PGSLPSKPPPGPVP [Q8TEP0 205-219] | 48.3 | 22.8
13 | PGPSLRRPSRELDA [Q9NTN9 19-32] | 442 | 226
14 | PGRAPRRPLLEGGG [Q9H6A9 285-298] | 44.4 | 711
15 | PGPGPRRPPWEGAD [Q96Q04 1263-1277] | 25 | 523
16 | PFRALKRPLQFLGL [O00156 318-331] | 28.1 | 63.7
17 | PGPFPPRPPGPLGP [Q9BW18 356-370] | 68.3 | 1930
18 | PGVEPKRPSRPINL [Q9UN16 222-235] | 8660 | 227
19 | ARRPPPRPHRRAET [Q9NQE0 211-224] | 2030 | 2500
20 | PGTGPWRPGRQRGA [Q9GZW5 233-246] | 656 | 156
21 | PHADPGRPERLVFK [Q9Y5X7 158-171] | 169 | 8.4

Now from value to binder:

Row | normalised SPOT signal, Boehringer light units (BLU); mean over the file's lines of this peptide [1] | normalised SPOT signal, Boehringer light units (BLU); mean over the file's lines of this peptide [2] | Binder
22 | 35.6 | 152 | PEVQLRRPNWSKLV [O60610 754-767]
23 | 38.5 | 348 | PGPAPKRPRGGGAG [Q06587 167-180]
24 | 45.1 | 2830 | PGHSPRRPRPLGLS [Q16538 521-534]
25 | 24.8 | 238 | PEYRPKRPANQFVP [P13862 172-185]
26 | 92.1 | 136 | ARRPLARPIKPNEI [O94825 179-192]
27 | 46.4 | 241 | PGGSPRRPPALAGP [P58401 8-21]
28 | 33 | 28.5 | PEVYLKRPAHSDDW [O14939 368-381]
29 | 570 | 4460 | PGGKPERPPKPGPP [P51511 339-353]
30 | 414 | 31.7 | PGEHPGRPGRGGSV [Q13577 1110-1123]
31 | 223 | 3750 | PGTPPRRPASPSAL [O75833 33-46]
32 | 65.6 | 228 | PFHSLKRPRPPFAR [O75048 874-887]
33 | 853 | 1310 | PGQGLRRPARPGPA [P78365 80-93]
34 | 215 | 3080 | PFFAPKRPFFPPRY [O75048 890-903]
35 | 35.3 | 60.1 | ARSYLRRPAVVYIG [O43188 617-630]
36 | 748 | 2310 | PGSGPPRPSRRLLD [O15427 206-219]
37 | 4690 | 5880 | PGQGPQRPRRPAKD [Q12984 75-88]
38 | 40.1 | 41.8 | PGFSLKRPRGLSRS [Q99640 37-50]
39 | 98.6 | 116 | PEPELSRPIRHHPD [Q01459 44-57]
40 | 19.1 | 194 | PGPSPARPPAKPPE [Q14184 97-111]
41 | 31.8 | 171 | PGAGLRRPTYTPPS [O15209 277-290]
42 | 227 | 265 | ARRPLARPIKRGDI [O94844 155-168]
